In IntAct's records for PubMed 26160948:

B1: Insulin-induced gene 2 protein (Homo sapiens), Q9Y5U4 (parent)
chain: MAEGETESPGPKKCGPYISSVTSQSVNLMIRGVVLFFIGVFLALVLNLLQIQRNVTLFPPDVIASIFSSAWWVPPCCGTASAVIGLLYPCIDRHLGEPHKFKREWSSVMRCVAVFVGINHASAKVDFDNNIQLSLTLAALSIGLWWTFDRSRSGFGLGVGIAFLATVVTQLLVYNGVYQYTSPDFLYVRSWLPCIFFAGGITMGNIGRQLAMYECKVIAEKSHQE
partner: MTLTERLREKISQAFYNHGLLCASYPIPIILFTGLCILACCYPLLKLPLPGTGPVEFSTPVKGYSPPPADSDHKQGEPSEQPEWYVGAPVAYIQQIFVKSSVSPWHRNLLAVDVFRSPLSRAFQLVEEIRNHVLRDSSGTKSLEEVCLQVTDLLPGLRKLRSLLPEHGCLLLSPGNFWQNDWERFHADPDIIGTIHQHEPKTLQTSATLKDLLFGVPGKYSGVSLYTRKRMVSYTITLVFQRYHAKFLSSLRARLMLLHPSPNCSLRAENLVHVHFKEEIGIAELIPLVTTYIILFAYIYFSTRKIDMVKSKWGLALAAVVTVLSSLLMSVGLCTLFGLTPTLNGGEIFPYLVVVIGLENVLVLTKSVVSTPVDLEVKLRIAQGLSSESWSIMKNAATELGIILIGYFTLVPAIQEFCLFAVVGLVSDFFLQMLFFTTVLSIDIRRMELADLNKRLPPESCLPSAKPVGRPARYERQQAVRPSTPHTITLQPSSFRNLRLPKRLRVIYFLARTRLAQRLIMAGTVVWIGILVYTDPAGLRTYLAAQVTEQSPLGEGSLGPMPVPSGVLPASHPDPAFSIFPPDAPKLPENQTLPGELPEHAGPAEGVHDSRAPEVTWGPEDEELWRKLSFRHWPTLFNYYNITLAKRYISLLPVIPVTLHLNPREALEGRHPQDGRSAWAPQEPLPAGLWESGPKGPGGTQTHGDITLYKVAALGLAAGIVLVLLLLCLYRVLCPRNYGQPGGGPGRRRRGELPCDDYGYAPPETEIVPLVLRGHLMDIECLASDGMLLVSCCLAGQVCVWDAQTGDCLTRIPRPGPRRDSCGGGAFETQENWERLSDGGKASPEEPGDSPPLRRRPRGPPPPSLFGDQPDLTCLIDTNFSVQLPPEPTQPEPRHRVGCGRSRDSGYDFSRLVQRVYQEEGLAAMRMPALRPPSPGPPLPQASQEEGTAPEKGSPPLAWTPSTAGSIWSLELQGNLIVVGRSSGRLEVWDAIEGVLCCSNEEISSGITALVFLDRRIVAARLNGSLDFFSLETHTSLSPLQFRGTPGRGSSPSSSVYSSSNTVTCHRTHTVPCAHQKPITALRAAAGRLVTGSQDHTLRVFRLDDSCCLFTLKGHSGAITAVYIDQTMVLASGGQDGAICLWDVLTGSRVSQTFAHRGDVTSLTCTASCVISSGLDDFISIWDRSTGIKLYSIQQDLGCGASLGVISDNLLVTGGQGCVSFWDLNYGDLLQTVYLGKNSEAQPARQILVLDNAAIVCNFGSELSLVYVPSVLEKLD

Variants of: B1
Conditions: with scap_mouse Scap
For MAEGETESPGPKKCGPYISSVTSQSVNLMIRGVVLFFIGVFLALVLNLLQIQRNVTLFPPDVIASIFSSAWWVPPCCGTASAVIGLLYPCIDRHLGEPHKFKREWSSVMRCVAVFVGINFASAKVDFDNNIQLSLTLAALSIGLWWTFDRSRSGFGLGVGIAFLATVVTQLLVYNGVYQYTSPDFLYVRSWLPCIFFAGGITMGNIGRQLAMYECKVIAEKSHQE [H120F], the “effect of a mutation on the interaction” value was “disrupting interaction strength”. With MAEGETESPGPKKCGPYISSVTSQSVNLMIRGVVLFFIGVFLALVLNLLQIQRNVTLFPPDVIASIFSSAWWVPPCCGTASAVIGLLYPCIDRHLGEPHKFKREWSSVMRCVAVFVGINHASAKVDFDNNIQLSLTLAALSIGLWWTFDRSRSGFGLGVGIAFLATVVTQLLVYNGVYQYTSPDFLYVRSWLPCIFFAGGITWGNIGRQLAMYECKVIAEKSHQE [M203W] the “effect of a mutation on the interaction” value was “decreasing interaction strength”. For MAEGETESPGPKKCGPYISSVTSQSVNLMIRGVVLFFIGVFLALVLNLLQIQRNVTLFPPDVIASIFSSAWWVPPCCGTASAVIGLLYPCIDRHLGEPHKFKREWSSVMRCVAVFVGINHASAKVDFDNNIQLSLTLAALSIGLWWTFDRSRSGFGLGVGIAFLATVVTQLLVYNGVYQYTSPDFLYVRSWLPCIFFAGFITMGNIGRQLAMYECKVIAEKSHQE [G200F], the “effect of a mutation on the interaction” value was “decreasing interaction strength”. In the case of MAEGETESPGPKKCGPYISSVTSQSVNLMIRGVVLFFIGVFLALVLNLLQIQRNVTLFPPDVIASIFSSAWWVPPCCGTASAVIGLLYPCIDRHLGEPHKFKREWSSVMRCVAVFVGINHASAKVDFDNNIQLSLTLAALSIGLWWTFARSRSGFGLGVGIAFLATVVTQLLVYNGVYQYTSPDFLYVRSWLPCIFFAGGITMGNIGRQLAMYECKVIAEKSHQE [D149A], the “effect of a mutation on the interaction” value is reported as “disrupting interaction strength”. In the case of MAEGETESPGPKKCGPYISSVTSQSVNLMIRGVVLFFIGVFLALVLALLFIQRNVTLFPPDVIASIFSSAWWVPPCCGTASAVIGLLYPCIDRHLGEPHKFKREWSSVMRCVAVFVGIFHASAKVDFDNNIQLSLTLAALSIGLWWTFDRSRSGFGLGVGIAFLATVVTQLLVYNGVYQYTSPDFLYVRSWLPCIFFAGGITMGNIGRQLAMYECKVIAEKSHQE [N47A;Q50F;N119F], the “effect of a mutation on the interaction” value is reported as “decreasing interaction strength”. With MAEGETESPGPKKCGPYISSVTSQSVNLMIRGVVLFFIGVFLALVLNLLQIQRNVTLFPPDVIASIFSSAWWVPPCCGTASAVIGLLYPCIDRHLGEPHKFKREWSSVMRCVWVFVGINHASAKVDFDNNIQLSLTLAALSIGLWWTFDRSRSGFGLGVGIAFLATVVTQLLVYNGVYQYTSPDFLYVRSWLPCIFFAGGITMGNIGRQLAMYECKVIAEKSHQE [A113W] the “effect of a mutation on the interaction” value was “disrupting interaction strength”. In the case of MAEGETESPGPKKCGPYISSVTSQSVNLMIRGVVLFFIGVFLALVLNLLQIQRNVTLFPPDVIASIFSSAWWVPPCCGTASAVIGLLYPCIDRHLGEPHKFKREWSSVMRCVAVFVGINHASAKVDFDNNIQLSLTLAALSIGLAWTFDRSRSGFGLGVGIAFLATVVTQLLVYNGVYQYTSPDFLYVRSWLPCIFFAGGITMGNIGRQLAMYECKVIAEKSHQE [W145A], the “effect of a mutation on the interaction” value is reported as “disrupting interaction strength”. With MAEGETESPGPKKCGPYISSVTSQSVNLMIRGVVLFFIGVFLALVLNLLQIQRNVTLFPPDVIASIFSSAWWVPPCCGTASAVIGLLYPCIDRHLGEPHKFKREWSSVMRCVAVFVGINHASAKVDFDNNIALSLTLAALSIGLWWTFDRSRSGFGLGVGIAFLATVVTQLLVYNGVYQYTSPDFLYVRSWLPCIFFAGGITMGNIGRQLAMYECKVIAEKSHQE [Q132A] the “effect of a mutation on the interaction” value was “decreasing interaction strength”. In the case of MAEGETESPGPKKCGPYISSVTSQSVNLMIRGVVLFFIFVFLALVLNLLQIQRNVTLFPPDVIASIFSSAWWVPPCCGTASAVIGLLYPCIDRHLGEPHKFKREWSSVMRCVAVFVGINHASAKVDFDNNIQLSLTLAALSIGLWWTFDRSRSGFGLGVGIAFLATVVTQLLVYNGVYQYTSPDFLYVRSWLPCIFFAGGITMGNIGRQLAMYECKVIAEKSHQE [G39F], the “effect of a mutation on the interaction” value is reported as “decreasing interaction strength”. MAEGETESPGPKKCGPYISSVTSQSVNLMIRGVVLFFIGVFLALVLNLLQIQRNVTLFPPDVIASIFSSAWWVPPCDGTASAVIGLLYPCIDRHLGEPHKFKREWSSVMRCVAVFVGINHASAKVDFDNNIQLSLTLAALSIGLWWTFDRSRSGFGLGVGIAFLATVVTQLLVYNGVYQYTSPDFLYVRSWLPCIFFAGGITMGNIGRQLAMYECKVIAEKSHQE [C77D] was tested, and the “effect of a mutation on the interaction” value was “decreasing interaction strength”. MAEGETESPGPKKCGPYISSVTSQSVNLMIRGVVLFFIGVFLALVLNLLQIQRNVTLFPPDVIASIFSSAWWVPPCCGTASAVIGLLYPCIDRHLGEPHKFKREWSSVMRCVAVFVFINHASAKVDFDNNIQLSLTLAALSIGLWWTFDRSRSGFGLGVGIAFLATVVTQLLVYNGVYQYTSPDFLYVRSWLPCIFFAGGITMGNIGRQLAMYECKVIAEKSHQE [G117F] was tested, and the “effect of a mutation on the interaction” value was “decreasing interaction strength”. For MAEGETESPGPKKCGPYISSVTSQSVNLMIRGVVLFFIGVFLALVLNLLQIQRNVTLFPPDVIASIFSSAWWVPPCCGTASAVIGLLYPCIDRHLGEPHKFKREWSSVMRCVAVAVGINHASAKVDFDNNIQLSLTLAALSIGLWWTFDRSRSGFGLGVGIAFLATVVTQLLVYNGVYQYTSPDFLYVRSWLPCIFFAGGITMGNIGRQLAMYECKVIAEKSHQE [F115A], the “effect of a mutation on the interaction” value was “disrupting interaction strength”.
